# Measurements published in the DeepSol protein solubility set.
# Test: soluble on expression in E. coli; label from the status in PepcDB or PDB records
row,Sequence,soluble on expression in E. coli
1,MGSDKIHHHHHHMIIHKFIIHVLDKNSDTPILNDFEGRVSQDMDLFFQKKISKVSRDNDIRTAVFNDYSNNLIKKCCEQIIYDESSFLNSSKEIAAYLFDVMKLNATLESCDLAICLYSQKDEKKVAILKLDYNKSYTHSIEFKDDKFNIQMSKNEINIQETKTIKIGAIIGLSGVNDEYHLKVLDKDAEKEEVNSKFVTEFLNATKVKDDKYRTKMFKTFVDAYIANLYSDMKQGEDVRSILLYMLREKQNLDINEFADKAIKDDLKDSFKDHAEEKGIESFNIDKKWVEKNLKNRHIKTDTGFEVKGKMDDFEDFMKYGIRHNGNGTVDIVIKNVNFYDEK,not soluble
2,SNAMIYPYKEKKPKIASSAFIADYVTITGDVYVGEESSIWFNTVIRGDVSPTIIGDRVNVQDQCTLHQSPQYPLILEDDVTVGHQVILHSCHIKKDALIGMGSIILDGAEIGEGAFIGAGSLVSQGKKIPPNTLAFGRPAKVIRELTAEDRKDMERIRTQYVEKGQYYKSLQK,soluble
3,MGSDKIHHHHHHLLVKRARLIVGNCWYLLHRIPVEIKDNSQYDIKLSDFGLSEFAESAKFDPVLCGTGPYMSGYRLEGVQGYQHSYVDDVWALAVCLFFLLYNEWPFRKRDGNVKDLLGFDPSQMWVPFPQGCRITAKRVGQGLIIENVNWPDASGDFSNYKGYDLLSYVKDQSVLEFSKVGGEIYEFRAGDDVEQINHQMNAALTEHECFIRFPGQEEDRKRRFRNEVLAGIREYWIQSDIEYGSGTRKQDLLESLATGSTEHSILQKLRVLPAYKSARKRSAEQSELGMLSFGLSGILKNSK,not soluble
4,MSLEQPGQPPAHSLVSLRGSGHHVAIVDRSDGRLLGTIDSARAASQVHPGAVYLHQGETFVIEELDDQVALAVPDQPDYQTFARSTTDIRIVGEVDKVCNPAPGLWVSNLVVEVTDRVVGYTMKASDGSVLAMVPLQMPPQTLVTRAVAYTVDPLVLDSLGITDVPGALHAAEHAAIGLLPLIATCDRWDIGGVSTAEHPDTGLPTVFVYDGHPGGAGFADCGYERFPEWVATTFEAIRSCQCESGCPSCVQSPKCGNGNDPLSKEGAIALLGAMCTMLGVTEGHHHHHH,not soluble
5,GPGSMPRYYTPHEVRAHCFEDDAYVSINGKVLDITPLIQMYQGTRYASLLQPLILAAGTDMTHLLDKKTMDFKTCIDPETGFRTYAQPFGRFAHTPTVLPDSSIDLSYEVPWWQDERYVIGQLTRKTRKIRIVNTLNGHEHTLEVCSEETLREIVMTRYLSHNAHALSYTWRRLDSEPRDLDMDKTLDENGVLDESEEFESLGLNADYYIPALHLYYDDDLTEA,soluble
6,MAHHHHHHMEPNADEPKKTSSVRQLLRQQRELQEMRKFGLAPLAVDTETHQEISPNIPEFISRAPWYYGATGPTLVHQRKQGDSATEVSDEVLDEKVDRIVVKGQASRFTAGACKNCGSRTHKTSECFQAKKKVGSVYTNRVTGSDIETHQEAKTYSQKRDRFVGEVGIDLMRGVRQDQQDDNVDVAAPATARHRPEDVFGSRTAQHGGVEVKELPKYLHNLDQQDGLFFDPKTGSMRANPNSGDSTKAFRGDLERYRTGDYYNYVESQYRFLTGQSRSFVDFEFDDAMRRAREQQQEPQQQEQNSTRGPVTKVLTETPQDVLLRSLYGASQPKFDSDVLPSFTTESKTSAPSSSPAPPVDALATTATATVTAHSSVQAASLSWVTTRNGHAAVYGSYFDPIHFRWGYACCKRMGKDTTGCSATHA,soluble
7,QIAPLFWLENTIEKVEGMRPYTPLEMAGREVYIREGCYVCHSQMIRPMRDEVERYGHYSLAAESMYDHPFQWGSKRTGPDLARVGGRYSDDWHVDHMRDPQSVVPESVMPKYGYLERTMIDGKYIGDLMAANAIVGVPYTDEMIEAAQADFAAQADPDSDYDGLLERYGDKVNVRNFDGQPGVSEADALIAYLQMLGT,not soluble
8,AHHHHHHGSKKRLPASRVYIKDILEGYFVKSEGDFEPNYLITKDARKIYRAKIVGTVIREPLIAEDETYGKFQIDDGTGVIWVLGFRDDTKFAKLVKKGDLVQVIGKIAEWRDDKQILVEGVAKVHPNMWILHRYETLKEKIEHARKAKIAFEIYNTYGITAKSKVIAKNKGVPEELLETIDELYGIIMEEKAMEEPVEELIEEEITEEGKEENEILEKVKQEILEILRSKKIAVSRKYILKKLGEKYDEETIEDAIAELLADGEIYEPETGYYKLL,not soluble
9,MSLKALIFDMDGVLVDSMPFHAAAWKKAFLEMGMEIQDEDIYAIEGSNPRNGLPLLIRKARKEPEDFDFEAITSIYRQEFNRIFKLKAFDGMKECLEFLKSRFLLSVVSGSDRLIVNGIVDQLFPGIFDTVVTGDDVLNSKPDPDPFLKAVELLNVGKEECVVIENAVLGVEAAKKADIYCIGVPTYVKPSELDRADLVVGNHQKLMEHLLSLEPLFSPEFIPGRREGHHHHHH,soluble
10,QKEQHSQLNQTKIAYEQRLLNDLEDMDDPLDLFLDYMIWISTSYIEVDSESGQEVLRSTMERCLIYIQDMETYRNDPRFLKIWIWYINLFLSNNFHESENTFKYMFNKGIGTKLSLFYEEFSKLLENAQFFLEAKVLLELGAENNCRPYNRLLRSLSNYEDRLREMNIVENQNSVPDSRERLKGRLIYRTAPFFIRKFLTSS,soluble
11,MGHHHHHHSHGPRDIISPELMADYLQPKLLGILAFFNMQLLSSSVGIEDKKMALNSLMSLMKLMGPKHVSSVRVKMMTTLRTGLRFKDDFPELCCRAWDCFVRCLDHACLGSLLSHVIVALLPLIHIQPKETAAIFHYLIIENRDAVQDFLHEIYFLPDHPELKKIKAVLQEYRKETSEST,not soluble
12,MAHHHHHHMGKLQAPCSPTVCGYPLPYPRSLSHNLFNVIQDTRRKGKTNTEQSELKNEGDPLTLSPIVPKVDTSPATESKGRRREEKPLAHEGQLLKHKLDVWRDLFLASAAQQLAASGHPRSRRDDAGNVFYSNISCYLKEGCIVKSEDTDLRTGPRDHLRVQGAYLSHLAPEAFANLHVTLDGNTFVLRNVQRTSPTIKQISEELCEERGIRLLPTAMQKKVAYLVSQVSTSTKERAGTISGKKGLATSKWKHTNSLQTCKHSLNMELPEVTYRSRVLSTIREGAYGSPFQKGCKM,not soluble
13,MSCGYTGPINEQNKENIKRAIAMHAAARRTRMLQQLREGLQLYRLVDIMEKNKEVCRSHFVFEGGNDQVDSQYIVSHLDPKMSESGTLKHSKEMQILNNFQDFLMELEDGGPEDEEALCVSKVMQWLSGQAHVHLLLSERQAFKITVLFDHTCMERMPDHRICYPVDSAWTQTITFPTAHSTSLNQFKENMRIAVQQGAYFYRV,not soluble
14,MIKRYTCPNGVRIVLENNPTVRSVAIGVWIGTGSRHETPEINGISHFLEHMFFKGTSTKSAREIAESFDRIGGQVNAFTSKEYTCYYAKVLDEHANYALDVLADMFFHSTFDENELKKEKNVVYEEIKMYEDAPDDIVHDLLSKATYGNHSLGYPILGTEETLASFNGDSLRQYMHDYYTPDRVVISVAGNISDSFIKDVEKWFGSYEAKGKATGLEKPEFHTEKLTRKKETEQAHLCLGFKGLEVGHERIYDLIVLNNVLGGSMSSRLFQDVREDKGLAYSVYSYHSSYEDSGMLTIYGGTGANQLQQLSETIQETLATLKRDGITSKELENSKEQMKGSLMLSLESTNSKMSRNGKNELLLGKHKTLDEIINELNAVNLERVNGLARQLFTEDYALALISPSGNMPS,not soluble
15,HKEFAVTMRPTEASERCHLRGSYTLRAGESALELWGGPEPGTQLYDWPYRFLRRFGRDKVTFSFEAGRRCVSGEGNFEFETRQGNEIFLALEEAISAQKN,soluble
16,KGLAIAADYRNAYRVGGDYYDFIPSNYDRIRSQDDPKLVQCVPWSIVIGDVMGKGVPAGLIMTMTRGMLRAEVLNRHSPAKILEHLNRVMYADLDNSHRFVTLFYSEYDPKTRTLSYSNAAHHPPLLWRAQTQNIEPLDTQGMLIGLDLDSSYEDAKVVLEVGDIILYYTDGFTDAVNSHGDRFDEENLVRVFQNACQNCQTPEAIVQELFTQVEKFTYPKVRGGDDMTLVVVQVQSEAIESHLCQHHDC,not soluble
17,MSLDTTALPHTTFEGIPLDGKNKQDIQKIVQQKVEELNKKSLNYVFENNTQTYTWKDLGVEYKEKDIVANIFKEQQGNIIDRYNMRKKAIHGELKREYKLKPQLNSTAYEAFMEDKYNETLKNPVNAELNISGTTVNISESQNGEKIDKEQLAILTKQAIAANTQNIKLPIASIKPERSTEDIQNMGIKQVIAEYSTPMTGRNGSQSFNVNKSANTLSGAIVAPDETFSFNGRVGITDAAHGYKSAAVYLQGKVVQSAGGGVCQVSSTLYGAVLRADLGVVARSNHSMPVHYLPLGQDAAVADYGPDLKFKNNTGHYIYIQAFSDGNRITTRIFGTPTGKNVEVSSKVISNTGNKITAVTYKKVTKDGQVISNGQISKSVYKKEGHHHHHH,not soluble
18,MSLTMDVPPTIHVPLPPTSYPAFDAAIFTDIGGRKHQEDRFTLCPQLVPGRDDCAFFGVFDGTVGDFASENVKDLVVPQLISSPAWQEVTEMLRSDVPATEVDEKLPQLLDQAVDDMYKNADNELVKMCEQLNKDYASSTSVTAVLAKGFVAVGHLGDSRIAMGVETPNGLNCEFLTVDHKPDMPHEKLRIMRNGGSVEYLHNHNNKPFIRGGDFSFRKSRGEQPMQLQYSRAFGGKDLKMYGLSNQPDVRVVRVTPQHRVMILATDGLWDVMSAAQAVEIAMQARQEGRNPAQALVEMTLAEQQSRNQSADNITAMTVFFKKTDEGHHHHHH,soluble
19,MDDREDLVYQAKLAEQAERYDEMVESMKKVAGMDVELTVEERNLLSVAYKNVIGARRASWRIISSIEQKEENKGGEDKLKMIREYRQMVETELKLICCDILDVLDKHLIPAANTGESKVFYYKMKGDYHRYLAEFATGNDRKEAAENSLVAYKAASDIAMTELPPTHPIRLGLALNFSVFYYEILNSPDRACRLAKAAFDDAIAELDTLSEESYKDSTLIMQLLRDNLTLWTSDMQGDGEEQNKEALQDVEDENQ,soluble
20,TSKATIRDLNDPSQVKTLQEKASKGAGTVVAVIDAGFDKNHEAWRLTDKTKARYQSKEDLEKAKKEHGITYGEWVNDKVAYYHDYSKDGKTAVDQEHGTHVSGILSGNAPSETKEPYRLEGAMPEAQLLLMRVEIVNGLADYARNYAQAIRDAVNLGAKVINMSFGNAALAYANLPDETKKAFDYAKSKGVSIVTSAGNDSSFGGKTRLPLADHPDYGVVGTPAAADSTLTVASYSPDKQLTETATVKTDDHQAKEMPVLSTNRFEPNKAYDYAYANRGMKEDDFKDVKGKIALIERGDIDFKDKIANAKKAGAVGVLIYDNQDKGFPIELPNVDQMPAAFISRKDGLLLKDNSKKTITFNATPKVLPTASDTKLSRFSSWGLTADGNIKPDIAAPGQDILSSVANNKYAKLSGTSMSAPLVAGIMGLLQKQYETQYPDMTPSERLDLAKKVLMSSATALYDEDEKAYFSPRQQGAGAVDAKKASAATMYVTDKDNTSSKVHLNNVSDKFEVTVTVHNKSDKPQELYYQATVQTDKVDGKHFALAPKALYETSWQKITIPANSSKQVTVPIDASRFSKDLLAQMKNGYFLEGFVRFKQDPKKEELMSIPYIGFRGDFGNLSALEKPIYDSKDGSSYYHEANSDAKDQLDGDGLQFYALKNNFTALTTESNPWTIIKAVKEGVENIEDIESSEITETIFAGTFAKQDDDSHYYIHRHANGKPYAAISPNGDGNRDYVQFQGTFLRNAKNLVAEVLDKEGNVVWTSEVTEQVVKNYNNDLASTLGSTRFEKTRWDGKDKDGKVVVNGTYTYRVRYTPISSGAKEQHTDFDVIVDNTTPEVATSATFSTEDRRLTLASKPKTSQPIYRERIAYTYMDEDLPTTEYISPNEDGTFTLPEEAETMEGGTVPLKMSDFTYVVEDMAGNITYTPVTKLLEGHS,soluble
21,MGSDKIHHHHHHKLFAAHGVDKVRLTGGEPTIRKDIVHIVEGISSTPGIKEVGITTNGLVLQRFLPQLRDAGLTKINISIDSLDREKFAKMTRRDGFDKVWKAIELARGYYPKVKLNVVVLKHQNENEVVDFVNLTKDRNLDVRFIEFMPFGGNEFKNDNFIGYREMLNLIVDKYGDGVIRLSDSPNDTTKAYKIDGFQGQFGFITSMSDHFCNTCNRLRITADGNL,not soluble
